The results in this text go back to publication PMC8800115.

Experiment [1] deals with K63-linked tetraubiquitin (UniProt P0CG48). As to the kind of experiment: ITC; MicroCal iTC200; proteins dialysed in 20 mM Hepes pH 7.5, 150 mM NaCl, 200 μM TCEP; 2-μl injections; who was in the cell is not given; ranges of Kd are from fits with N fixed to 1 (first value: active concentration in the cell varied, second: in the syringe); Kd of S470R and E467R/S470R called apparent.

The target in the next experiment is K63-linked diubiquitin (UniProt P0CG48). Described as above.

On to “ASCC2 CUE domain (construct of the ITC experiments of Figure 2) (from UniProt Q9H1I8 463-525) (domain or fragment)”, for which the stoichiometry N (ASCC2 CUE domains per K63Ub4) in experiment [1] was determined as 2. Moreover, in the experiment with K63-linked diubiquitin, the Kd was 8.7 to 10.4 µM and the stoichiometry N (ASCC2 CUE domain per K63Ub2) worked out at 1.
